Assay results: article PMC11457862, “Engineered cytokine/antibody fusion proteins improve IL-2 delivery to pro-inflammatory cells and promote antitumor activity” (JCI Insight, 2024)
Numbering of substitutions follows the chain as printed. Names may count otherwise.

Columns and labels:
[1] = biological target: T1, biotinylated mouse IL-2Rα (Mus musculus, UniProt P01590, biotin); assay: BLI; same set-up as a7; equilibrium titration, first-order fit (Supplemental Figure 6G,H, Supplemental Table 1); conditions: both partners purified
T1 construct: mouse IL-2 receptor alpha; the supplementary methods describe only the human constructs; probably an ectodomain with BAP like them; also called mIL-2Rα
T1 sequence (P01590 22-268): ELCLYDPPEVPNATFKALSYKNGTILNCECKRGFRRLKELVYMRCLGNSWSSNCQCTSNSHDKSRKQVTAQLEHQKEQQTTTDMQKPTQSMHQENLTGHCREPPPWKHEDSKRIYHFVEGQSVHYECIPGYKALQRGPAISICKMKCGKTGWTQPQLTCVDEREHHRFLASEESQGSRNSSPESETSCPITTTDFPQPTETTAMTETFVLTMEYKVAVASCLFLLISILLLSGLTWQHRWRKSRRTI

[2] = biological target: T2, biotinylated mouse IL-2Rβ (Mus musculus, UniProt P16297, biotin); assay: as above; conditions: both partners purified
T2 construct: mouse IL-2 receptor beta; the supplementary methods describe only the human constructs; probably an ectodomain with BAP like them; also called mIL-2Rβ
T2 sequence (P16297 27-539): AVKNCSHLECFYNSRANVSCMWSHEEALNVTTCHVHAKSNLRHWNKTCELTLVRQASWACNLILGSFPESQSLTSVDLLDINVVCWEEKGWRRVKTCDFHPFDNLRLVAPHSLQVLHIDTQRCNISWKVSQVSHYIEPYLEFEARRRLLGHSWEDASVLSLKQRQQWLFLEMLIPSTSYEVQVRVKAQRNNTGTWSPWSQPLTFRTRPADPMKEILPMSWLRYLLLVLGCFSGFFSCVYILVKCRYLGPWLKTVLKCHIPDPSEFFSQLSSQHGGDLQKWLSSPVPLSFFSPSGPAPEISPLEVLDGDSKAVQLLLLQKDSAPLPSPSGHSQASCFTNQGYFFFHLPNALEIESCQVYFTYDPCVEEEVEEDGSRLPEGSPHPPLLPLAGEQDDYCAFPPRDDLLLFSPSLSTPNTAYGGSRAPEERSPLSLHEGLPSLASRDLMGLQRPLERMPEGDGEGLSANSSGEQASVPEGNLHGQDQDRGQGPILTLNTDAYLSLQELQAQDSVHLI

[3] = biological target: T3, biotinylated human IL-2 (amino acids 1-133, C-terminal biotin acceptor peptide) (human, UniProt P60568, biotin on the biotin acceptor peptide (BirA ligase)); assay: BLI; same set-up as a3; equilibrium titration, first-order fit (Supplemental Figure 4A-C, Supplemental Table 4); conditions: both partners purified
T3 construct: also called immobilized IL-2; hIL-2; source: HEK 293F, purified (Ni-NTA, biotinylated with BirA, SEC)

[4] = biological target: T3, biotinylated human IL-2 (amino acids …); assay: BLI; same set-up as a1; equilibrium titration of the response at the end of the association phase, first-order fit (Figures 2 and 3, Supplemental Table 1); conditions: both partners purified
[5] = biological target: T3, biotinylated human IL-2 (amino acids …); assay: BLI; biotinylated human IL-2 or IL-2Rβ on streptavidin tips; engineered 602 IC variants and controls in PBSA; kinetic fit, 1:1 binding model (Supplemental Figure 5, Supplemental Table 4); conditions: both partners purified
[6] = biological target: T3, biotinylated human IL-2 (amino acids …); assay: BLI; biotinylated human IL-2, IL-2Rα or IL-2Rβ on streptavidin tips (Octet Red96); soluble analyte in PBSA (PBS pH 7.2, 0.1% BSA), 300 s association; kinetic fit, 1:1 binding model; IL-2/602 Cx 2:1 by the legend (Supplemental Figure 2, Supplemental Table 1); conditions: both partners purified
[7] = biological target: T3, biotinylated human IL-2 (amino acids …); assay: flow cytometry on cells; yeast displaying scFv incubated with 5 nM biotinylated IL-2 and titrated IL-2Rα in PBE buffer, 2 h, room temperature; detected with Alexa Fluor 647 streptavidin; conditions: one partner purified
[8] = biological target: T3, biotinylated human IL-2 (amino acids …); assay: BLI; same set-up as a5; equilibrium titration, first-order fit (Supplemental Figure 6C,D, Supplemental Table 5); conditions: both partners purified
[9] = biological target: T3, biotinylated human IL-2 (amino acids …); assay: BLI; biotinylated human IL-2 on streptavidin tips; scFvs, IL-2/antibody complexes (2:1) and ICs in PBSA; kinetic fit, 1:1 binding model (Supplemental Figure 6A,B, Supplemental Table 5); conditions: both partners purified
human IL-2 = biological target: T4, human IL-2 (human, UniProt P60568); assay: BLI; scFvs with IL-2, kinetics; who was immobilised is not told in what was shown; conditions: both partners purified
T4 construct: Used soluble, immobilised on BLI tips and in the crystals; also called hIL-2; interleukin-2

B1: anti-human IL-2 antibody 602 (MAB602), recombinant mouse IgG2a kappa (antibody, V domains shown)
VH: EVQLQESGPGLVAPSQSLSITCTVSGFSLTNYDISWIRQPPGKGLEWLGVIWTGGGTNYNSGFMSRLSITKDNSKSQVFLKMNSLQTDDTAIYYCVRQGRTPYWGQGTLVTVSA
VL: DIQVTQSPSSLSVSLGDRVTITCKASKDIYNRLAWYQQKPGNAPRLLISGATSLETGVPSRFSGSGSGKDYTLTITSLQTEDVATYYCQQFWGTPYTFGGGTKLEIK
notes: mouse IgG2a heavy chain constant region; mouse kappa light chain constant region; mouse IgG2a kappa; source: HEK 293F, transient co-transfection, purified (Protein G, SEC); copies: 2 + 2
- Kd [1]: > 10000 nM
- Kd [2]: > 10000 nM
- Kd [3]: 3.7 ± 7.4 nM
- Kd [4]: 6.3 ± 5.2 nM
- Kd [5]: 0.044 ± 0.05 nM
- koff [5]: 2.8e-05 s⁻¹
- kon [5]: 642000 M⁻¹ s⁻¹
- Kd [6]: 0.13 ± 0.02 nM
- koff [6]: 5.1e-05 s⁻¹
- kon [6]: 382000 M⁻¹ s⁻¹

B2: yeast-displayed 602 scFv variant E10 (scFv, V domains shown)
VH: B1 VH with T101A
VL: B1 VL with F91L
notes: also called E10 scFv; not shown: Aga2, N-terminal, kept
- binding result [7]: binds

B3: F10 scFv (VH-[G4S]3-VL), soluble (scFv, V domains shown)
VH: B1 VH with T101S
VL: B1 VL with F91S, G93D
notes: the scFv chain of PDB 8SOW; source: HEK 293F, purified (Ni-NTA, SEC)
- Kd [8]: 6.12 ± 5.66 nM
- Kd [9]: 0.34 ± 0.01 nM
- koff [9]: 0.000188 s⁻¹
- kon [9]: 563000 M⁻¹ s⁻¹

B4: F10 scFv (scFv, V domains shown)
VH: B1 VH with T101S
VL: B1 VL with F91S, G93D
notes: as the scFv of m13 with the stated changes; numbers count on the scFv (T99S in CDR3H, F91S and G93D in CDR3L, Kabat); soluble scFv used for BLI and for the crystal structure; also called variant F10
- fold reduction in dissociation rate against 602 scFv (human IL-2): 3.6 fold

B5: yeast-displayed 602 scFv variant A8 (scFv, V domains shown)
VH: B1 VH
VL: B1 VL with G93D, T97S
notes: also called A8 scFv; not shown: Aga2, N-terminal, kept
- binding result [7]: binds

B6: 602 scFv (VH-[G4S]3-VL), soluble (scFv, V domains shown)
VH: B1 VH
VL: B1 VL
notes: the scFv chain of PDB 8SOZ; source: HEK 293F, purified (Ni-NTA, SEC)
- Kd [8]: 9 ± 8.59 nM
- Kd [9]: 1.94 ± 0.02 nM
- koff [9]: 0.00067 s⁻¹
- kon [9]: 361000 M⁻¹ s⁻¹

B7: yeast-displayed 602 scFv variant H2 (scFv, V domains shown)
VH: B1 VH with T101S
VL: B1 VL with Y30H, F91V
notes: also called H2 scFv; not shown: Aga2, N-terminal, kept
- binding result [7]: binds

B8: yeast-displayed 602 scFv variant C5 (scFv, V domains shown)
VH: B1 VH
VL: B1 VL with F91T
notes: also called C5 scFv; not shown: Aga2, N-terminal, kept
- binding result [7]: binds
